One assay has as its target T1, mouse serum albumin (mouse, UniProt P07724 25-608).
T1 construct: also called MuSA
The experiment in a line: BLI (OCTET RED96), VHH-IgG1-Fc on protein A biosensor, pH 7.4. On the procedure:
(§1) The VHH anti-albumin antibodies were evaluated for their ability to interact with human, monkey, and mouse serum albumins at different pH values, e.g., pH 7.4 or pH 5.5 to simulate the pH of an acidified endosome. Briefly, a VHH anti-albumin antibody was fused onto a human IgG1-Fc. The expressed protein was then loaded onto a protein A biosensor (OCTET® RED96). The biosensor was in turn dipped into a solution containing a human, monkey, or mouse serum at three or more different concentrations, e.g., 50, 100, or 200 nM, or 100, 200, or 400 nM. Primary experimental data was analyzed with global fitting to determine a dissociation constant (KD). The results are summarized in Table 7 (pH 5.5) and Table 8 (pH 7.4), wherein A represents a value no greater than 10 nM, B represents a value greater than 10 nM but no greater than 100 nM, and C represents a value greater than 100 nM but no greater than 500 nM.

The target of assay [1] is T2, monkey serum albumin (monkey (cynomolgus monkey in paragraph 472), UniProt A2V9Z4 25-608).
T2 construct: also called cynomolgus monkey serum albumin; CySA
Described as above. On the procedure:
as §1

The target of assay [2] is T3, human serum albumin (human, UniProt P02768 25-609).
T3 construct: The immunogen was rice-expressed HSA (Sigma A9731); also called HSA
The description is as above. On the procedure:
as §1

Assay [3] deals with T3, human serum albumin. The experiment in a line: BLI (OCTET RED96), VHH-IgG1-Fc on protein A biosensor, albumin in solution, pH 7.4; grade legend in paragraph 477. On the procedure:
as §1

For assay [4], the target named is T2, monkey serum albumin. Described as above. As for the experimental part: as §1
Assay [5] has as its target T3, human serum albumin. The experiment in a line: BLI (OCTET RED96), VHH-IgG1-Fc on protein A biosensor, albumin in solution, pH 5.5; grade legend in paragraph 477. On the procedure:
as §1

B1: anti-HSA VHH antibody A7 fused onto a human IgG1-Fc (Fc fusion)
chain: QVQLVESGGGLVQAGGSLRLSCAASGRSVSLYHVGWFRHTPGKEREFVAATAWHDGSTSYADSVKGRFTISRDSAKNTVFLQMSSLQPEDTAVYYCAADPGGSSWSQPWYDYWGQGTQVTVSS
notes: Llama VHH; also called Ab A7; not shown: human IgG1 Fc
For B1, the binding result with mouse serum albumin was “no binding”.

B2: anti-HSA VHH antibody A16 fused onto a human IgG1-Fc (Fc fusion)
chain: QVQLVESGGGLVQAGGTLRLSCTASGSTFRGNGMAWHRQAPGKEREFVAYMGMTDRITYAESVKGRFTLSRDDAKNRVYLHMNNLEVEDTAVYYCTAFGSWGQGTQVTVSS
notes: Llama VHH; also called Ab A16; not shown: human IgG1 Fc
On to B2, for which the binding result with monkey serum albumin [1] and with mouse serum albumin was “no binding” in each case.

B3: anti-HSA VHH antibody A18 fused onto a human IgG1-Fc (Fc fusion)
chain: QEQLVESGGGLVQAGGSLRLSCAASTRTINIYAMAWFRQAPGKEREFVAAVTWSGLTRDYADSVKGRFTISRDNPKNTLYLQMNSLQPEDTAVYYCAAGRYSTGTHDYDYWGQGTQVTVSS
notes: Llama VHH; also called Ab A18; not shown: human IgG1 Fc
Regarding B3, the binding result with human serum albumin [2], in the assay with monkey serum albumin [1] and with mouse serum albumin was “no binding” each time.

B4: anti-HSA VHH antibody A2 fused onto a human IgG1-Fc (Fc fusion)
chain: QVQLVESGGGLVQAGGSLRLSCAASGRSVSLYHVGWFRHTPGKEREFVAATAWHDGSTSYADSVKGRFTISRNNAKNTVYLQMNSLQPEDTAVYYCAGEAKLGGIYSRWRDYEYWGQGTQVTVSS
notes: Llama VHH; also called Ab A2; not shown: human IgG1 Fc
Turning to B4, the binding result with mouse serum albumin is recorded as “no binding”. The dissociation constant Kd in the assay with human serum albumin [3] and with monkey serum albumin [4] was at most 10 nM each time.

B5: anti-HSA VHH antibody A6 fused onto a human IgG1-Fc (Fc fusion)
chain: QVQLVESGGGLVQAGGSLRLSCAASGRSVSLYHVGWFRHTPGKEREFVAATAWHDGSTSYADSVKGRFTISRNNAKNTVYLQMNSLQPEDTAVYYCAGEAKLGGIYSRWRDYEYWGQGTQVTVSS
notes: Llama VHH; also called Ab A6; not shown: human IgG1 Fc
With B5, in the assay with mouse serum albumin, the binding result is on record as “no binding”. The Kd with human serum albumin [3] and in the assay with monkey serum albumin [4] was at most 10 nM in each case.

B6: anti-HSA VHH antibody A11 fused onto a human IgG1-Fc (Fc fusion)
chain: QVQVVESGGGLVQPGGSLRLSCAASGMSSANVMGWYRQVPGNQRELVARITSSGRTMYSDSVLGRFTISRGGAGNTADLQMNMLKPEDTAIYICNIRILGSFDPDSGYWGQGTQVTVSS
notes: Llama VHH; also called Ab A11; not shown: human IgG1 Fc
On to B6, for which the binding result with human serum albumin [2], in the assay with monkey serum albumin [1] and with mouse serum albumin was “no binding” in each case.

B7: anti-HSA VHH antibody A17 fused onto a human IgG1-Fc (Fc fusion)
chain: QVQLVESGGELVQAGGSLRLSCVVSGRTFRTRTMGWFRQAPGKEREYVAHISANGPITDYSDSVKGRFAISRDNAKNTVNLQMNSLKPEDTAVYYCALHNGIGVRTVPSQYDSWGQGTQVTVSS
notes: Llama VHH; also called Ab A17; not shown: human IgG1 Fc
For the molecule B7, the binding result with monkey serum albumin [1] and in the assay with mouse serum albumin was “no binding” throughout.

B8: anti-HSA VHH antibody A9 fused onto a human IgG1-Fc (Fc fusion)
chain: QVQLVESGGGLVQAGGSLRLSCAASGRTFSNDAMGWFRQAPGKERVFVATISWKSSTYYADSVKGRFTISRDHAKNTVYLQMNNLKPEDTAVYYCVADPYGLGFNPSDYDYWGQGTQVTVSS
notes: Llama VHH; also called Ab A9; not shown: human IgG1 Fc
As to B8, the binding result with mouse serum albumin was “no binding”. For the same molecule, the Kd in the assay with human serum albumin [3] was at most 10 nM.

B9: anti-HSA VHH antibody A15 fused onto a human IgG1-Fc (Fc fusion)
chain: QVQLVESGGGLVQPGGSLRLSCAASGFAFRGFGMSWVRQAPGKGFEWVSSINNGGSDTRYADSVKGRFTISRDNARNTLYLQMNSLKPEDTAVYYCAIGGPGASPSGQGTQVTVSS
notes: Llama VHH; also called Ab A15; not shown: human IgG1 Fc
For the molecule B9, the binding result with mouse serum albumin is on record as “no binding”.

B10: anti-HSA VHH antibody A14 fused onto a human IgG1-Fc (Fc fusion)
chain: QVQLVESGGGLVQPGGSLRLSCAASGFTFRGFGMSWVRQAPGKGFEWVSSINSGGEDTRYSDSVKGRFTISRDNARNTLYLQMNSLKPEDTAVYYCAIGGAGATPSGQGTQVTVSS
notes: Llama VHH; also called Ab A14; not shown: human IgG1 Fc
Regarding B10, the binding result with mouse serum albumin is “no binding”.

B11: humanized anti-HSA VHH antibody A20 fused onto a human IgG1-Fc (Fc fusion)
chain: QVQLVESGGGVVQPGGSLRLSCAASGFAFRGFGMSWVRQAPGKGLEWVSSINNGGSDTYYADSVKGRFTISRDNSKNTLYLQMNSLRAEDTAVYYCAIGGPGASPSGQGTQVTVSS
notes: also called Ab A20; anti-HSA A20; not shown: human IgG1 Fc
For the molecule B11, the binding result in the assay with mouse serum albumin is listed as “no binding”.

B12: anti-HSA VHH antibody A12 fused onto a human IgG1-Fc (Fc fusion)
chain: EVQLVESGGGLVQPGGSLRLSCAASGFTFRGFGMSWVRRAPGKEFEWVSSINGGGEDTRYSDSVKGRFTISRDNARNTLYLQMNSLKPEDSAVYYCAIGGPGATPSGPGTQVTVSS
notes: Llama VHH; also called Ab A12; not shown: human IgG1 Fc
With B12, the binding result with mouse serum albumin was “no binding”.

B13: anti-HSA VHH antibody A10 fused onto a human IgG1-Fc (Fc fusion)
chain: QVQLVESGGGLVQAGGSLRLSCLASGGTFSSYAMGWFRQAPGKEREFVAAISWKSSTYYTDSVKGRFTISRDNAKNTVYLQMNSLTPEDTAVYYCAADPTGSYDQPWYDYWGQGTQVTVSS
notes: Llama VHH; also called Ab A10; not shown: human IgG1 Fc
Consider B13, for which the binding result in the assay with mouse serum albumin is reported as “no binding”.

B14: anti-HSA VHH antibody A13 fused onto a human IgG1-Fc (Fc fusion)
chain: QVQLVESGGGSVQPGGSLRLSCAASGRNFNPMGWFRQAPGKQRESVAAIGTDGSTKYADSVKGRFTISRDNGKNTVYLQMNSLKSEDTAVYYCNVGGWGISWFPWGRGTQVSVSS
notes: Llama VHH; also called Ab A13; not shown: human IgG1 Fc
As to B14, the binding result in the assay with mouse serum albumin is listed as “no binding”.

B15: anti-HSA VHH antibody A1 fused onto a human IgG1-Fc (Fc fusion)
chain: QVQLVESGGGLVQPGGSLRLSCAASGRIFSTYAMGWFRQPPGKEREFVASINRSGDSTYYADSVKGRFTISRDNAKNTGYLQMSSLKPEDTAVYYCAADSDGIGWFNSFEYDYWGRGTQVTVSS
notes: Llama VHH; also called Ab A1; not shown: human IgG1 Fc
Take B15: the binding result with mouse serum albumin is “no binding”. Also, the Kd with human serum albumin [3] and in the assay with monkey serum albumin [4] was at most 10 nM throughout.

B16: anti-HSA VHH antibody A4 fused onto a human IgG1-Fc (Fc fusion)
chain: QVQLVESGGGLVQPGGSLRLSCAASGRIFSTYAMGWFRQPPGKEREFVASINRSGDSTYYADSVKGRFTISRDDAKNMGYLQMSSLKPEDTAVYYCAADSDGIGWFNSFEYDYWGRGTQVTVSS
notes: Llama VHH; also called Ab A4; not shown: human IgG1 Fc
On to B16, for which the binding result in the assay with mouse serum albumin is “no binding”. Further, the Kd with monkey serum albumin [4] was at most 10 nM.

B17: anti-HSA VHH antibody A8 fused onto a human IgG1-Fc (Fc fusion)
chain: QVQLVESGGGLVQPGGSLRLSCAASGSTWSINTLAWYRQAPGKQRDLVARISSGGSTHYADSVKGRFTVSRDNAENTLVLQMNSLKPEDTAVYYCYAQSTWYPPSWGQGTQVTVSS
notes: Llama VHH; also called Ab A8; not shown: human IgG1 Fc
For the molecule B17, the dissociation constant (Kd) with human serum albumin [5] was at most 10 nM.

B18: humanized anti-HSA VHH antibody A19 fused onto a human IgG1-Fc (Fc fusion)
chain: EVQLVESGGGLVQPGGSLRLSCAASGSTWSINTLAWYRQAPGKQRDLVARISSGGSTYYADSVKGRFTISRDNSKNTLYLQMNSLRAEDTAVYYCYAQSTWYPPSWGQGTLVTVSS
notes: also called Ab A19; anti-HSA A19; not shown: human IgG1 Fc
In the assay with monkey serum albumin [4], B18 gave a Kd of at most 10 nM.

B19: anti-HSA VHH antibody A3 fused onto a human IgG1-Fc (Fc fusion)
chain: QVQLVESGGGLVQAGGSLRLSCAASGRTFSIYDMGWFRQAPGKEREFVAATNLRGVSTRYADSVKGRFTISGDNAKNTVSLQMNSLIPEDTAVYYCAAAVSNWLAKDPSAYSYWGQGTQVTVSS
notes: Llama VHH; also called Ab A3; not shown: human IgG1 Fc
B19: the binding result with mouse serum albumin is “no binding”. In addition, the Kd in the assay with human serum albumin [3] is at most 10 nM.
